Results published in the nanobody polyreactivity screen of Harvey et al. (2022).

Assay: yeast display, Sf9 membrane polyspecificity reagent, FACS + sequencing; frameworks hold sequencing errors
How it was run: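 Galactose-induced (36–48 hours) yeast carrying a synthetic nanobody display library were exposed to 10% biotinylated, detergent-solubilized Sf9 membrane reagent at 4 °C for 1 hour. FACS followed streptavidin microbead enrichment, using low and high (top ~1%) gates for expression (anti-HA) and reagent binding (streptavidin). Colony PCR, MiSeq 2 × 250 sequencing and CDR-length filtering followed. Labels for polyreactivity reflect the gate of origin.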

Sequence	polyreactivity (PSR sort gate)
QVQLVESGGGLVQAGGSLRLSCAASGSIFKIYAMGWDRQAPGKERELVASITGSGGSTYYADSVKGRFTISRDNAKNTVYLQMNSLKPEDPAVYYCAVEAWSVPPYDYWGQGTQVTVSS	low polyreactivity
QVQLVESGGGLVQAGGSLRLSCAASGSIFKLNAMGWYRQAPGKERELVAAISRGGRTYYADSVKGRFTISRDNAKNTVYLQMNSLKPEDTAVYYCAADASSQIWYYPRDDYWGQGTLVTVSS	low polyreactivity
QVQLVESGGGLVQAGGSLRLSCAASGSIFKNYAMGWYRQAPGKERELVAAITSGGRTYYADSVKGRFTISRDNAKNTVYLQMNSLKPEDTAVYYCAALGRYGYYYWGQGTQVTVSS	high polyreactivity
QVQLVESGGGLVQAGGSLRLSCAASGSIFKNYAMGWYRQAPGKERELVATISSGDSTYYADSVKGRFTISRDNAKNTVYLQMNSLKPEDTAVYYCNTTEHNYVSSFEYGYWGQGTHVTVSS	low polyreactivity
QVQLVESGGGLVQAGGSLRLSCAASGSIFKPYSMGWYRQAPGKERELVAAISTRRSSTYYADSVKGRFTFSRDNAKNTVYLQMNSLIQEDTAVYYCAKRRYLWGYEYDSWGQGTQVNVSS	high polyreactivity
QVQLVESGGGLVQAGGSLRLSCAASGSIFKRNAMGWYRQAPGKERELVASISSGGSTHYADSVKGRFTISRDNAKNTVYFQMNSLKPEDTAVYYCAATSIRWSVGSFRRDYWGQGTQVTVSS	low polyreactivity
QVQLVESGGGLVQAGGSLRLSCAASGSIFKRNAMGWYRQAPGKERELVASISSGGSTHYADSVKGRFTNSRDNAKNTVYLQMNSLKPEDTAVYYCAATSIRWSVGSFRRDYWGQVTQVTVSS	low polyreactivity
QVQLVESGGGLVQAGGSLRLSCAASGSIFKSYAMGWYRQAPGKERELVAAISGSGGRTYYADSVKGRFTISRDNAKNTVYLQMNSLKPEDTAVYYCNALASIRTHTGYAYSPPYDYWGQGTQVTVSS	high polyreactivity
QVQLVESGGGLVQAGGSLRLSCAASGSIFKSYAMGWYRQAPGKERELVAAITRSGGSTYYADSVKGRFTISRDNAKNTVYLQMNSLKPEDTAVYYCAKKAPYWSYYYWGQGTQVTVSS	high polyreactivity
QVQLVESGGGLVQAGGSLRLSCAASGSIFKTNAMGWYRQAPGKERELVAAIYRSDGTDYADSVKGRFTISRDNAKNTVYLQMNSLKPEDTAVYYCNADKWSVVGYVLGFYRDDYWGQGSQVTVSS	low polyreactivity
QVQLVESGGGLVQAGGSLRLSCAASGSIFKTNAMGWYRQAPGKERELVAGISNGGSTNYADSVKGRFTISRDNAKNTVYLQMNSLKPEDTAVYYCAAPYTSQTIPDYVRYFIEYDYWGQGTQVTVSS	low polyreactivity
QVQLVESGGGLVQAGGSLRLSCAASGSIFKVNVMGWSRQAPGKERELVAAISRSGGNTYYADSVKGRFTISRDNAKNTVYLQMIILKPEDTGVYYCANDRRYYKAYDYWGQGTRVTVSS	low polyreactivity
QVQLVESGGGLVQAGGSLRLSCAASGSIFKWYAMGWYRQAHGKERELVAAITNGGGSTYYADSVKGRFTISRDNAKNTVYLQMNSLKPEDTAVYYCNADSYYYPYDYWGQGTQVTVSS	low polyreactivity
QVQLVESGGGLVQAGGSLRLSCAASGSIFKYNAMGWYRKAPGKERELVAAISWSGASTSYADSVKGRFTISRDNAKNTVYLQMNSLKPEDTAVYYCNAYYWYYSTRKYYYWGQGTKVTVSS	high polyreactivity
QVQLVESGGGLVQAGGSLRLSCAASGSIFKYNAMGWYRQAPGKERELVAAISNDGGRTYYADSVKGRFTISRDNAKNTVYLQMNSLKPEDTPVYDGNVVRVRYYWWEFDYWGQGTQVTVSS	high polyreactivity
QVQLVESGGGLVQAGGSLRLSCAASGSIFKYYAMAWYRQSPGNERELVAAISSGGRTYYADSVKGRFTISRDNAKNTVYLQMNSLKPEDTAVYYCNRVGTYHSYDYWGQGTQVTVSS	high polyreactivity
QVQLVESGGGLVQAGGSLRLSCAASGSIFKYYAMGWYIQAPGKERELVAAITYSGGSTYYADSVKGRFTISRDNAKNTVYLQMNSLKPEDTAVYYCNKVYKSYYWGGYEWGQATQVTVSS	high polyreactivity
